Measured values from paper PMC4346921, “Identification of the Specific Interactors of the Human Lariat RNA Debranching Enzyme 1 Protein” (International Journal of Molecular Sciences, 2015).

Molecular target: T1, GST-hDbr1 (human, UniProt Q9UK59-1 1-544)
T1 construct: human Dbr1, cDNA NM_016216 inserted into BamHI and XhoI sites of GEX-6P-1; also called GST-hDbr1 protein; recombinant Dbr1 protein fused to GST; source: E. coli BL21 (DE3) CodonPlus-RIPL, purified (Glutathione Sepharose)
T1 sequence (looked up): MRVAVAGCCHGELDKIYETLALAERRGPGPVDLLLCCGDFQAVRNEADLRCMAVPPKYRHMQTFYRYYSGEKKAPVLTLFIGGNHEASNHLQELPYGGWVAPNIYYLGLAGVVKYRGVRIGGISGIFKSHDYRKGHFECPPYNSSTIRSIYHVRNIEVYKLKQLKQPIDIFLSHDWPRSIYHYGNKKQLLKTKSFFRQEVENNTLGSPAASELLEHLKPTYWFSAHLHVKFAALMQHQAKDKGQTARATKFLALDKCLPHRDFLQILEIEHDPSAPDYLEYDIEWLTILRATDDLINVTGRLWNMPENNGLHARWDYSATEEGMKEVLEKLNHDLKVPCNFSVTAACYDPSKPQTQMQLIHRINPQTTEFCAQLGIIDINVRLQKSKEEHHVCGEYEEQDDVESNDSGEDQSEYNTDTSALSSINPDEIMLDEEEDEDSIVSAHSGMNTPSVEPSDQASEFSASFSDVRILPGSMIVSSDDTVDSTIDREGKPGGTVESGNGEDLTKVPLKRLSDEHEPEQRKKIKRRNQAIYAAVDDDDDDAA
Experiment: pull-down; 2 μg purified His-tagged (T7-His) hDrn1 incubated with 5 μg GST or GST-hDbr1; bound proteins detected by Western blotting with anti-T7 tag antibody
Settings: both partners purified

binding result: binds
B1: T7-His-hDrn1 (natural protein, human, UniProt Q69YN2-1 1-538, looked up)
chain: MAQKPLRLLACGDVEGKFDILFNRVQAIQKKSGNFDLLLCVGNFFGSTQDAEWEEYKTGIKKAPIQTYVLGANNQETVKYFQDADGCELAENITYLGRKGIFTGSSGLQIVYLSGTESLNEPVPGYSFSPKDVSSLRMMLCTTSQFKGVDILLTSPWPKCVGNFGNSSGEVDTKKCGSALVSSLATGLKPRYHFAALEKTYYERLPYRNHIILQENAQHATRFIALANVGNPEKKKYLYAFSIVPMKLMDAAELVKQPPDVTENPYRKSGQEASIGKQILAPVEESACQFFFDLNEKQGRKRSSTGRDSKSSPHPKQPRKPPQPPGPCWFCLASPEVEKHLVVNIGTHCYLALAKGGLSDDHVLILPIGHYQSVVELSAEVVEEVEKYKATLRRFFKSRGKWCVVFERNYKSHHLQLQVIPVPISCSTTDDIKDAFITQAQEQQIELLEIPEHSDIKQIAQPGAAYFYVELDTGEKLFHRIKKNFPLQFGREVLASEAILNVPDKSDWRQCQISKEDEETLARRFRKDFEPYDFTLDD
notes: Cwf19L1/hDrn1 cDNA (NM_018294), same fragment as in myc-/Flag-hDrn1, between BamHI and XhoI sites of pET-28a; pET-28a with BamHI/XhoI would place the His and T7 tags at the N-terminus (surmised); also called T7- and His-tagged hDrn1 protein; His-tagged hDrn1; source: E. coli BL21 (DE3) CodonPlus-RIPL, purified (Ni-NTA)
